In patent publication US20150017657A1, “ASSAY AND METHOD FOR IDENTIFYING COMPOUNDS THAT INHIBIT EXCITOTOXIC SIGNALS” (THE UNIVERSITY OF SYDNEY, priority 2011, published 2015):
No end group written: not given here.

Molecular target: T1, Tau protein bound to Fyn protein (N-GFP-Fyn / C-GFP-Tau) (Homo sapiens, UniProt P06241)
T1 construct: A nucleic acid encoding amino acids 83-145 of human Fyn was cloned into the N-GFP-pLVX vector; N-GFP (GFP aa 1-158) with GGSG linker and XbaI-encoded SR; expressed in transfected cells; host or cells: COS-7 cells, lentiviral pLVX constructs, stably expressed
T1 sequence (P06241 83-145): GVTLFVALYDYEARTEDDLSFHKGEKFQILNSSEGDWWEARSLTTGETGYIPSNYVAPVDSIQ
Assay: split-GFP reassembly assay of Tau/Fyn binding in transfected COS-7 cells
Type: cell-based
Conditions: 200 nM peptide, 1 hour at 37 degree Celsius; COS-7 cells expressing N-GFP-Fyn and N-terminal C-GFP-Tau; plate reader or fluorescence microscope (FIG. 5)
Excerpt: Lentiviruses containing either combination of constructs, i.e. N-terminal C-GFP fused to Tau and N-GFP fused to Fyn, or C-terminal C-GFP fused to Tau and N-GFP fused to Fyn, were then generated using standard protocols (e.g. Krupka et al., Plasmid, 2010, 63(3):155-60) and stably expressed in COS-7 cells.
However, transfection of constructs encoding N-terminal C-GFP fused to Tau and N-GFP fused to Fyn did result in green fluorescing cells (FIG. 5).
Cells generated by the methods described in Example 1 were grown till confluent in 96-well plates and then the fluorescence was measured in a 96-well plate reader (Omega, BMG) or by via fluorescence microscope. The cells were then incubated with 200 nM of the Tat-7PXXP peptide for 1 hour at 37 degree Celsius. The fluorescence was again measured in a 96-well plate reader (Omega, BMG) or via a fluorescence microscope.

YGRKKRRQRRRTPPKSPSS [Tat-7PXXP]
fluorescence of the transfected cells: negligible
